# Tests used:
# Type in all cases: in vivo
# S180 sarcoma solid tumor = test: mouse S180 sarcoma solid tumor model, inhibitory rate of tumor weight; conditions: S180, dose 60.0 mg/kg weight (positive control)
# Procedure: (§1) In mouse experimental tumor model, such as ehrlich ascites carcinoma and S180 entity tumor, the peptide derived from the scorpion or partial fragment, derivative or analogue thereof having analgesic and antitumor activity obtained in example 1,2 and 6 was injected subcutaneously in a dose of 0.1 mg/kg weight to 16.0 mg/kg weight for continuous seven days. […] For example, the peptide of the SDS-PAGE single band obtained in Example 1 was administrated at the dose of 0.639 mg/kg weight. […] The peptide derived from the scorpion or partial fragment, derivative or analogue thereof having analgesic and antitumor activity obtained in example 1,2 and 6 was administrated by stomach infusion in a dose of 0.1 mg/kg weight to 16.0 mg/kg weight for continuous ten days.
# [1] = system: ehrlich ascites carcinoma; test: mouse ehrlich ascites carcinoma model, rate of life prolonging
# Procedure: as §1
# mouse heat plate model = mouse heat plate model (pain threshold); conditions: 0.6 mg/kg weight intravenously
# Procedure: (§2) The above samples were administrated by stomach infusion in a dose of 0.1 mg/kg weight to 16.0 mg/kg weight. […] In the mouse heat plate model, the above samples were administrated by intravenous injection in a dose of 0.1 mg/kg weight to 16.0 mg/kg weight. […] For example, the peptide of SDS-PAGE single band obtained in example 1 and 2 were injected intravenously at 0.6 mg/kg weight.
# [2] = system: writhing response of mouse (acetic acid writhing model); conditions: administered by stomach infusion
# Procedure: as §2
Molecule,inhibitory rate of tumor weight (S180 sarcoma solid tumor) [%],"rate of life prolonging ([1]; dose 60.0 mg/kg weight, subcutaneous injection (positive control)) [%]","rate of life prolonging ([1]; stomach infusion, dose 0.213 mg/kg weight, ten days) [%]","rate of life prolonging ([1]; stomach infusion, dose 0.639 mg/kg weight, ten days) [%]",pain threshold raised in a rate of (mouse heat plate model; at 5 min) [%],pain threshold raised in a rate of (mouse heat plate model; at 15 min) [%],pain threshold raised in a rate of (mouse heat plate model; at 25 min) [%],pain threshold raised in a rate of (mouse heat plate model; at 35 min) [%],pain threshold raised in a rate of (mouse heat plate model; at 45 min) [%],pain threshold raised in a rate of (mouse heat plate model; at 60 min) [%],pain threshold raised in a rate of (mouse heat plate model; at 90 min) [%],ED50 (median effective dose) [2] [mg/kg weight]
"O=P1(N(CCCl)CCCl)NCCCO1 (stereo not drawn) [cyclophosphamide, reference compound]",50.5,15.6,,,,,,,,,,
"Example 2: peptide having analgesic and antitumor activity purified from homogenized scorpion by the processes of Example 1; SEQ ID NO: 1 (protein, Scorpion) VRDGYIADDKNCAYFCGRNAYCDDECKKNGAESGYCQWAGVYGNACWCYKLPDKVPIRVPGKCNGG",,,16.8,31.5,16.5,145.7,219.1,219.1,177.6,32.4,14.9,2.86

# Source: patent US7592309B2, “Method of using a peptide having analgesic and antitumor activity from scorpion” (priority 2001, dated 2009)
